Here are results for five molecules from US20130288979A1 (CENTRE NATIONAL DE LA RECHERCHE SCIENTIFIQUE CNRS, published 2013).

Assay [1] has as its target T1, His-tagged intracellular region of Fas receptor (UniProt P25445 191-335, limits assumed).
T1 construct: domain: intracellular region; Bought reagent (Sigma); also called intra-cellular region of the Fas receptor (Sigma); not shown: His tag
T1 sequence (looked up): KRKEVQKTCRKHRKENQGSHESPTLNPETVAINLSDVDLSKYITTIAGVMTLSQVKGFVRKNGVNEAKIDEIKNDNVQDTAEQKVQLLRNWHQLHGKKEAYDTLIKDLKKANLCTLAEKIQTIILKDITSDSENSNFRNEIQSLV
Briefly: SPR (Biacore), mean of three experiments ± SD. On the procedure: Additionally, the potential interaction of the fragments with the intracellular region of the Fas receptor was cross-validated by measuring the binding affinities (Kd) using the surface plasmon resonance (SPR) technique (Biacore Life Science, Sweden).
All experiments are performed on a Biacore instrument. For each condition, the mean value of three independent experiments and the corresponding standard deviation are plotted.

Assay [2] addresses T1, His-tagged intracellular region of Fas …. Briefly: SPOT pepscan of DAXX (15mers, shift 3) on membrane, probed with His-tagged Fas intracellular region, anti-His(mouse)/anti-mouse-HRP, enzyme-linked blot.

Non-standard residues stand in square brackets, D forms with d. No end group written: not given here. Ahx = NCCCCCC(=O)O

In general, Kd refers to the free concentration of one partner at which half of the binding sites on the other are occupied at equilibrium, for simple one-to-one binding. A high value points to lower affinity.

B1: Pip2b-DAXXp (peptide)
peptide: R[Ahx]RR[Ahx]RR[Ahx]RIHILFQN[dR]RMKWHKKKSRKEKKQTGSGPLG-NH2
modifications: not fully specified
notes: 39 residues; holds non-natural residues in the Pip2b part
In turn, B1 yielded a Kd in assay [1] of 0.7 µM.

B2: mDAXXp (peptide)
peptide: KRFRKEKKQLGSGLLG-NH2
modifications: not fully specified; printed as KRFRKEKKQLGSGLLG-NH2
notes: also called mouse homolog of human DAXXp; murine DAXXp
B2 showed a Kd in assay [1] of 252 µM.

B3: Tat-DAXXp (peptide)
peptide: GRKKRRQRRRPPQKKSRKEKKQTGSGPLG-NH2
notes: Conjugate of the Tat cell penetrating peptide (N-terminal) and DAXXp
In assay [1], B3 returned a Kd of 13 µM.

In assay [1], KKSRKEKKQTGSGPLG-NH2 (also called DAXX peptide) [DAXXp] returned a Kd of 333 µM.

B4: ncDAXXp (peptide)
peptide: AKLYVYINELCTVLK
notes: Negative-control DAXX 15mer; the text uses it as Tat-ncDAXXp in the cell assays; also called circled spot at the start of row 41 of the DAXX pepscan
Consider B4, for which the binding result in assay [2] is given as “no binding”.
